Results as given in paper PMC5640589.

Test system: T1, His6-SACE_3446B (Saccharopolyspora erythraea A226), ORF:3b7da887
T1 sequence: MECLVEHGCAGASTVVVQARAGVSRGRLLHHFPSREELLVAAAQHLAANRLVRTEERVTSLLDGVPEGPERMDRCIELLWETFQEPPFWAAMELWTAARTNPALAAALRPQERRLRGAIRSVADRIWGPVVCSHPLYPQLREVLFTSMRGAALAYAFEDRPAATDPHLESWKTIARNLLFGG
Experiment: EMSA
Conditions: 10 mM Tris pH 7.5, 5 mM MgCl2, 50 mM EDTA ([…]

Sequence	binding
GCGAGTGTCCGTTCGAGTGGCGGCTTGCGCCCGATGCTAGTCGCGGTTGATCGGCGATCGCAGGTGCACGCGGTCGATCTTGACGGCTGGCGAGAGGTGCGGGGAGGATCTGACCGACGCGGTCCACACGTGGCACCGCGATGCTGTTGTGGGCTGGACAATCGTGCCGGTTGGTAGGATCCAGCG (double strand) [ermE promoter]	no binding
GCGTCCCCCTACTCGACGACCACGCAATGGGCGAACAATATAGGAAGGATCAAGAGGTTGACATCGCCTCGTCGAGCCAACGAACCTGTGAACATCTGCATGTTGACAAGATCAACGGCGGCTACCTACTGTGGTGGCCCAGTGACGGGTTGCCGCACATCGCGCTGGGGAGATTCTTTGAATTTCGCCCGTAGCACCGACCTGGAAAGCGAGCAAATGCTCCG (double strand) [eryAI promoter]	no binding
